Test results taken from a protein production outcome set (Wang et al. 2014).

Assay: label from the status in PepcDB records
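Further: failed if final PepcDB status was selected cloned or expressed and not failed if soluble or beyond.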

With “MNTKALIGILMFLLLITWSSKGFAKTAEATVTVNIRNSPSTSSKVLGVFPKGFKAQVLSSTGGWVKISFDGVVGYVKSDYIKLTKDSSTSNAVKSSTNTRQVVSQMPMATVLKDNARVRSNMSTSSKILKTLKKGSKVYVLARERNGWIKVKTLDGTVGYMAYYLLKMSTSHTTKISSRGGYDREAQVAYNGSLADRILGFAKNLLGIRYRYGGSSPSTGFDCSGFVQYVFRNFGISLERTAADMAATDGVRISYNELRPGDLVFFDTDGGRNYINHVGIYLGGGKYIHASSARGCVTISDLTSKYGTSFMMAKRVIR” the protein production was “failed”.

For “MDISLLSTTSDPEQLRALAIAMVQKVMAENAELQNRIRILEEQMKLARQQRFGKKCESLAGMQRSLFEEDVDADIAEISAHLDKLLPQTGDEEKTTTRPVRKPLPSPLPRAEKVIPPAEERCPDCDAPLHFIRDEVSEKLEYIPAQVVVNRYIRPQYSCPCCEKVFSGKMPAHILPKSAVEPSVIAQVVISKYTDHLPLYRQQHIFSRMGVELPVSTMADMVGVAGAALAPLAKLLRHELLTRDVIHADETSLRLLDTRKGGKSCSGWLWAYVSGERVSVNGAPY”, the protein production was “failed”.

With “MNSVGFYGKLAGRGDFVSRGLPNTFVEPWDAWLASGMRASQDELGAAWLDAYLTSPLWRFAIAPGLLGGEAVTGVVMPSIDRVGRYFPLTVACLLPANADLGGLVGGDDGWFEQVESLLLSTLEPEAEVEAFEQAVAQLPAPPCGPRIEQSLISGNLLRSEAVTPAQRLAALAQHACDGASHWWGRGSARISAGLMRYQGLPPAPAFGRFLTGEGEVIPLFPGIPG” the protein production was “not failed”.

For “MKPNNVNNQNKRHQSRWVITSATAMILTTLTIASQAAAADDTVTTTTNEPTNSQLNTNTQVNATQVNLKADTSTSVSTIKSDQSAVAATSPTTSTGSPSEHSSSVNTNPQQQSANPASQSQATTTSESTPTTDIKHPTQTAPAQTTSASTTEPTTESNTESATDSQAKATTTDNQASKQPSQQAVPASSNSTTTEVNTQSATSSASTDDKIVTNVNQEKLVLKTNQPVVRAISRTASENINDWMPNTLLQQEVLSQLRKQNPDRTWNSAADITKADMLLLTTYYGKDTYIDGKTSYSLEGLQYATNLTTVWLNNNLNAPSGSYYSDVTDISPLANLQKLQVVNIQQNRITDISPLANLKNLTEVDAAYNHISDFSPLKGFKNLKGTFSNQFITLPPAYISADNNIATLAIDCYLPDGSKVQLKPNNGVGETVFYKNGQLYVRWYFNGAGGGNYDSNGHIYYTNMKPQQPGLTGPTFNGTTVIPMDDYYFMTAASDGNNFVVVRPYVLAATAAPITVKYVDALTGESLVTADLTLNGIVGQPYTTQRIDDELPNYDFTNIVGNASGVFTADAQTVTYYYTRKDAGDITIHMVDTNGNLVYEPQILPGKHNLGNAYNLDAPTFDHFKLHQTIGNAAGVFTTDPQSITFVYVRLDAGNITVKYQDKQGHQLKPDKTVSGSQSLGQTYTTEPLGIENYTLMTTPANATGTFTDQEQTVIYVYVRRDAGQIVVKYQDSAGNPLAPDKLLDGKEQLGVAYQTAAISIPNFYLVATPANATGTFSTDTQTVIYQYARSNAGHITVKYQDANGTTLAPDDVLTGDGQLGRPYQTSAKTIENYRLIQTPANATGQFSDQAQTVIYVYTREDAGDITVQYLDENGQQLAADSVLSGQGQLGQPYETSPLNINGYTVKSTQGNTTGTYTVQPQRVVYIYERTAGQPVTAKYQDQDGKSIHPDVVHSGYLGDNYSTEQLVIDGYTFKAVQGDVSGTFGTSAKTVTYVYTESTPTIPDTQGTVTVHYVTKDGIKLNEPTVLSGKTGTTYQTVPLTFTDHELVGQPENATGLFTADNVDVTYVYQATDTTGTDDIIDPEEPEQPTKPIKPTTPETPNEPGTTVTQPDRIKPTQPAVAVKPAATVKPTLKPAAAQASLVKTTSPVTEHSAQLPQTDEQTGKLAVILGLLLSVVTLGFYGKNRQS”, the protein production was “failed”.
